Experimental data from US20140154256A1 (published 2014).

Assays:
[1] = biological target: T1, recombinant human IL-1β (human, UniProt P01584 117-269); experiment: cell-based or functional assay
[2] = biological target: T2, recombinant human IL-1α (human, UniProt P01583 113-271); experiment: cell-based or functional assay
T2 sequence (looked up): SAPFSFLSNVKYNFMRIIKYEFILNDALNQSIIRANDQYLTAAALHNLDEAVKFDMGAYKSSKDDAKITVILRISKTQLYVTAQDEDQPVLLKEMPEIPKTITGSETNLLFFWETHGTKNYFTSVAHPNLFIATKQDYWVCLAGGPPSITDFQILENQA

[3] = biological target: T3, human IL-12 (human, UniProt P29459 23-219; P29460 23-328); experiment: SPR (Biacore)
T3 construct: also called hIL-12
T3 sequence (looked up) 1: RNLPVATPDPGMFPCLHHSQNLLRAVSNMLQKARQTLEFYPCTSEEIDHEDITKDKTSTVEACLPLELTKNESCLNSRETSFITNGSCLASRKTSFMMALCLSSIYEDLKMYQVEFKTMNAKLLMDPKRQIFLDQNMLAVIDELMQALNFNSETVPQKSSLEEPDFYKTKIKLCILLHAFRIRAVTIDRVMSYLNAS
T3 sequence (looked up) 2: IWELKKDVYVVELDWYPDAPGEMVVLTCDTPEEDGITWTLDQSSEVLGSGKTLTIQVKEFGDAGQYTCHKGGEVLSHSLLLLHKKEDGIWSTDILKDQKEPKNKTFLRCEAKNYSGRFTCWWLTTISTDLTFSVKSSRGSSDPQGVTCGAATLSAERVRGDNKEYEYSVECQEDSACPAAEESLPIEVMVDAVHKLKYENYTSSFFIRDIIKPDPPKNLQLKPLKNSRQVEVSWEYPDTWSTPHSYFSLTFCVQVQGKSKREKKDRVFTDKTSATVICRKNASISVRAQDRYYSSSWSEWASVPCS

[4] = biological target: T4, human IL-18 (human, UniProt Q14116 37-193); experiment: SPR (Biacore)
T4 construct: also called hIL-18

[5] = biological target: T3, human IL-12; experiment: cell-based or functional assay
[6] = biological target: T4, human IL-18; experiment: cell-based or functional assay
[7] = biological target: T1, recombinant human IL-1β; experiment: SPR (Biacore)
[8] = biological target: T2, recombinant human IL-1α; experiment: SPR (Biacore)
[9] = biological target: T2, recombinant human IL-1α; experiment: cell-based or functional assay; remark: listed apart in the source
[10] = biological target: T1, recombinant human IL-1β; experiment: cell-based or functional assay; remark: listed apart in the source
[11] = biological target: mouse IL-1β (mouse, UniProt P10749 118-269); experiment: cell-based or functional assay
[12] = biological target: T5, mouse IL-1α (mouse, UniProt P01582 115-270); experiment: cell-based or functional assay
T5 sequence (looked up): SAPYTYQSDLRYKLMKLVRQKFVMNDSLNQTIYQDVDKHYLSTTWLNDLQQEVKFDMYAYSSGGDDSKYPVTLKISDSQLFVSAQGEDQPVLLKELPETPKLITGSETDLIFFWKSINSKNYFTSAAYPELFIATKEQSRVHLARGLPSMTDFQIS

mouse IL-1β, sequence (P10749 118-269 limits assumed): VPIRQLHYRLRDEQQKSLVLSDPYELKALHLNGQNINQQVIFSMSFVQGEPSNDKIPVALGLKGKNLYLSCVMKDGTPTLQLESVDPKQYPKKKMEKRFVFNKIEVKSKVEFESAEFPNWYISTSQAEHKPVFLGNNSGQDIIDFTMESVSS

B1: murine monoclonal antibody 6B12.4F6 (anti-hIL-1β) (antibody, V domains shown)
VH: EVQLQQSGPELVKTGTSVKISCKASGYSFTGYYMHWVRQSHGKSLEWIGYISCYNGFTSYNPKFKGKATFTVDTSSSTAYIQFSRLTSEDSAVYYCARSDYYGTNDYWGQGTTLTVSS
VL: QIVLTQSPAIMSASPGEKVTITCSASSSVSYMHWFQQKPGASPKLWIYSTSNLASGVPARFSGSGSGTSYSLTVSRMEAEDAATYYCQQRSTYPYTFGGGTKLEIKR
[1]
  IC50 (M), MRC-5 bioassay (IL-8 production): 3.2e-10 M

B2: murine monoclonal antibody 3D12.E3 (anti-hIL-1α) (antibody, V domains shown)
VH: QIQLVQSGPELKKPGETVKISCKASGYTFRNYGMNWVKQAPGKDLKRMAWINTYTGESTYADDFKGRFAFSLETSASTAYLQINNLKNEDTATYFCARGIYYYGSSYAMDYWGQGTSVTVSS
VL: NIQMTQTTSSLSASLGDRVTISCRASQDISNCLNWYQQKPDGTVKLLIYYTSRLHSGVPSRFSGSGSGTDYSLTISNLEQEDIATYFCQQGKTLPYAFGGGTKLEINR
[2]
  IC50 (M), MRC-5 bioassay (IL-8 production): 6.7e-10 M

B3: murine monoclonal antibody 18F4.2C8 (anti-hIL-1α) (antibody, V domains shown)
VH: EVQLQQSGAELVKPGASVKLSCTASGLNIKDTYMHWLKQRPEQGLEWIGRIDPANGNAKYDPRFLGKATITADTSSNTAYLQLSSLTSEDTAVYYCARGDGNFHFDYWGQGTTLTVSS
VL: DIVMTQSQRFMSTSVGDRVSVTCKASQNVGTNIAWYQQKPGQSPRALIYSASYRYSGVPDRFTGSGSGTDFTLTISNVQSVDLAEYFCQQYTRYPLTFGGGTKLEIKR
[2]
  IC50 (M), MRC-5 bioassay (IL-8 production): 8.9e-11 M

B4: DVD1812LL (anti-IL12/IL18 DVD-Ig, 18-12-C, long linker) (bispecific antibody, human IgG1, kappa)
heavy: not shown
light: EIVMTQSPATLSVSPGERATLSCRASESISSNLAWYQQKPGQAPRLFIYTASTRATDIPARFSGSGSGTEFTLTISSLQSEDFAVYYCQQYNNWPSITFGQGTRLEIKRTVAAPSVFIFPPQSVLTQPPSVSGAPGQRVTISCSGSRSNIGSNTVKWYQQLPGTAPKLLIYYNDQRPSGVPDRFSGSKSGTSASLAITGLQAEDEADYYCQSYDRYTHPALLFGTGTKVTVLGTVAAPSVFIFPPSDEQLKSGTASVVCLLNNFYPREAKVQWKVDNALQSGNSQESVTEQDSKDSTYSLSSTLTLSKADYEKHKVYACEVTHQGLSSPVTKSFNRGEC
notes: also called DVD1812HC-LL / DVD1812LC-LL
[3]
  Kd: 0.113 nM
[4]
  Kd: 0.162 nM
[5]
  Potency (IC50, M), IL-12-induced IFN-γ production by PHA blast cells: 1.18e-10 M
[6]
  Potency (IC50, M), KG-1 bioassay (IFN-γ production): 7.8e-11 M

B5: hIL-1α/bDVD3a-Ig (bispecific antibody, human IgG1, kappa)
heavy: not shown
light: DIVMTQSQRFMSTSVGDRVSVTCKASQNVGTNIAWYQQKPGQSPRALIYSASYRYSGVPDRFTGSGSGTDFTLTISNVQSVDLAEYFCQQYTRYPLTFGGGTKLEIKRTVAAPETTVTQSPASLSMAIGEKVTIRCITSTDIDVDMNWYQQKPGEPPKLLISQGNTLRPGVPSRFSSSGSGTDFVFIIENMLSEDVADYYCLQSDNLPLTFGAGTKLELKRTVAAPSVFIFPPSDEQLKSGTASVVCLLNNFYPREAKVQWKVDNALQSGNSQESVTEQDSKDSTYSLSSTLTLSKADYEKHKVYACEVTHQGLSSPVTKSFNRGEC
notes: 18F4.2C8 - short linker - 1B12.4H4 - C (a-b-C); also called hIL-1a/b DVD3a-Ig
[7]
  Kd: 63.7 nM
[8]
  Kd: 0.837 nM
[9]
  Potency (IC50) M, MRC-5 bioassay: 0.75 nM

B6: hIL-1α/bDVD6a-Ig (bispecific antibody, human IgG1, kappa)
heavy: not shown
light: QIVLTQSPALMSASPGEKVTMTCSASSSVNYMYWYQQKPRSSPKPWIYLTSNLASGVPARFSGSGSGTSYSLTISSMEAEDAATYYCQQWNSNPYTFGGGTKLEMKRTVAAPSVFIFPPQIVLTQSPAIMSASPGEKVTITCSASSSVSYMHWFQQKPGASPKLWIYSTSNLASGVPARFSGSGSGTSYSLTVSRMEAEDAATYYCQQRSTYPYTFGGGTKLEIKRTVAAPSVFIFPPSDEQLKSGTASVVCLLNNFYPREAKVQWKVDNALQSGNSQESVTEQDSKDSTYSLSSTLTLSKADYEKHKVYACEVTHQGLSSPVTKSFNRGEC
notes: 6H3.1A4.3E11 - long linker - 6B12.4F6 - C (a-b-C); also called hIL-1a/b DVD6a-Ig
[7]
  Kd: 2.09 nM
[8]
  Kd: 1.06 nM
[10]
  Potency (IC50) M, MRC-5 bioassay: 70 nM
[9]
  Potency (IC50) M, MRC-5 bioassay: 2.3 nM

B7: murine monoclonal antibody 1B12.4H4 (anti-hIL-1β) (antibody, V domains shown)
VH: QVHLKESGPGLVAPSQSLSITCTVSGFSLTDYGVSWIRQPPGKGLEWLGLIWGGGDTYYNSPLKSRLSIRKDNSKSQVFLKMNSLQTDDTAVYYCAKQRTLWGYDLYGMDYWGQGTSVTVSS
VL: ETTVTQSPASLSMAIGEKVTIRCITSTDIDVDMNWYQQKPGEPPKLLISQGNTLRPGVPSRFSSSGSGTDFVFIIENMLSEDVADYYCLQSDNLPLTFGAGTKLELKR
[1]
  IC50 (M), MRC-5 bioassay (IL-8 production): 5.3e-10 M

B8: mouse anti-mouse IL-1β mAb clone 10G11 (antibody, V domains shown)
VH: EVQLQQSGPELVKPGTSVKMSCKTSGYTFTSYVMHWVKQKPGQGLEWIGYIIPYNDNTKYNEKFKGKATLTSDKSSSTAYMELSSLTSEDSAVYYCARRNEYYGSSFFDYWGQGTTLTVSS
VL: DIQMTQSPASLSASVGETVTITCRGSGILHNYLVWYQQKQGKSPQLLVYSAKILADGVPSRFSGSGSGTQYSLKINSLQPEDFGSYYCQHFWSTPFTFGSGTKLEIKR
[11]
  IC50 (M), in vitro potency (assay not described): 3.7e-10 M

B9: hIL-1α/bDVD6b-Ig (bispecific antibody, human IgG1, kappa)
heavy: not shown
light: QIVLTQSPAIMSASPGEKVTITCSASSSVSYMHWFQQKPGASPKLWIYSTSNLASGVPARFSGSGSGTSYSLTVSRMEAEDAATYYCQQRSTYPYTFGGGTKLEIKRTVAAPSVFIFPPQIVLTQSPALMSASPGEKVTMTCSASSSVNYMYWYQQKPRSSPKPWIYLTSNLASGVPARFSGSGSGTSYSLTISSMEAEDAATYYCQQWNSNPYTFGGGTKLEMKRTVAAPSVFIFPPSDEQLKSGTASVVCLLNNFYPREAKVQWKVDNALQSGNSQESVTEQDSKDSTYSLSSTLTLSKADYEKHKVYACEVTHQGLSSPVTKSFNRGEC
notes: 6B12.4F6 - long linker - 6H3.1A4.3E11 - C (b-a-C); also called hIL-1a/b DVD6b-Ig
[7]
  Kd: 0.697 nM
[8]
  Kd: 0.82 nM
[10]
  Potency (IC50) M, MRC-5 bioassay: 0.75 nM
[9]
  Potency (IC50) M, MRC-5 bioassay: 1 nM

B10: murine monoclonal antibody 13F5.G5 (anti-hIL-1β) (antibody, V domains shown)
VH: QVQLQQSGAELVRPGSSVKISCKASGYAFSSYWMNWVKQRPGQGLEWIGQIYPGDGDTNYNGKFKGKATLTADKSSSTSYMQLSGLTSEDSAMYFCVRFPTGNDYYAMDYWGQGTSVTVSS
VL: NIVLTQSPASLAVSLGQRATISCRASESVDSYGNSYMHWYQQKPGQPPKLLIYLASNLESGVPARFSGSGSRTDFTLTIDPVEADDAATYYCQQNNEDPFTFGSGTKLEIKR
[1]
  IC50 (M), MRC-5 bioassay (IL-8 production): 6e-10 M

B11: murine monoclonal antibody 6H3.1A4.3E11 (anti-hIL-1α) (antibody, V domains shown)
VH: QVQLQQPGAELVRPGASVKLSCKASGYTFTTYWMNWVKQRPEQGLEWIGRIDPYDSETLYSQKFKDTAILTVDKSSSTAYMQLSSLTSEDSAVYYCARYGFDYWGQGTTLTVSS
VL: QIVLTQSPALMSASPGEKVTMTCSASSSVNYMYWYQQKPRSSPKPWIYLTSNLASGVPARFSGSGSGTSYSLTISSMEAEDAATYYCQQWNSNPYTFGGGTKLEMKR
[2]
  IC50 (M), MRC-5 bioassay (IL-8 production): 2.4e-10 M

B12: DVD1812SL (anti-IL12/IL18 DVD-Ig, 18-12-C, short linker) (bispecific antibody, human IgG1, kappa)
heavy: not shown
light: EIVMTQSPATLSVSPGERATLSCRASESISSNLAWYQQKPGQAPRLFIYTASTRATDIPARFSGSGSGTEFTLTISSLQSEDFAVYYCQQYNNWPSITFGQGTRLEIKRTVAAPQSVLTQPPSVSGAPGQRVTISCSGSRSNIGSNTVKWYQQLPGTAPKLLIYYNDQRPSGVPDRFSGSKSGTSASLAITGLQAEDEADYYCQSYDRYTHPALLFGTGTKVTVLGTVAAPSVFIFPPSDEQLKSGTASVVCLLNNFYPREAKVQWKVDNALQSGNSQESVTEQDSKDSTYSLSSTLTLSKADYEKHKVYACEVTHQGLSSPVTKSFNRGEC
notes: also called DVD1812HC-SL / DVD1812LC-SL
[3]
  Kd: 1.82 nM
[4]
  Kd: 0.191 nM
[5]
  Potency (IC50, M), IL-12-induced IFN-γ production by PHA blast cells: 3.66e-10 M
[6]
  Potency (IC50, M), KG-1 bioassay (IFN-γ production): 4e-11 M

B13: mouse anti-mouse IL-1α mAb clone 9H10 (antibody, V domains shown)
VH: QVILKESGPGILQPSQTLSLTCSFSGFSLSTYGTAVNWIRQPSGKGLEWLAQIGSDDRKLYNPFLKSRITLSEDTSNSQVFLKITSVDTEDSATYYCANGVMEYWGLGTSVTVSS
VL: SIVMTQTPKFLLVSAGDRVTITCKASQSVNHDVAWYQQMPGQSPKLLIYFASNRYTGVPDRFTGSGYGTDFTFTISTVQAEDLAVYFCQQDYSSPYTFGGGTKLEIKR
[12]
  IC50 (M), in vitro potency (assay not described): 2e-10 M
